Test results reported in patent publication US20060094649A1 (published 2006).
Each block holds one binder with its values, some of them ahead of it. Non-standard residues stand in square brackets, D forms with d. No end group written: not given here. Abu = CC[C@H](N)C(=O)O

Key:
[1] = biological target: HLA-B*1801 (human); test: competition with labeled probe peptide, purified HLA class I
[2] = biological target: HLA-A*3301 (human); test: competition vs 125I probe, purified HLA
[3] = biological target: HLA-B*4501 (human); test: competition vs labelled reference peptide on HLA class I
[4] = biological target: HLA-A*3101 (human); test: competition vs 125I probe, purified HLA
[5] = biological target: HLA-B*4403 (human); test: competition vs labelled reference peptide on HLA class I
[6] = biological target: HLA-B*4403 (human); test: competitive inhibition of labeled probe peptide, purified HLA
[7] = biological target: HLA-B*4403 (human); test: competition with labeled probe peptide, purified HLA class I

Binder: LESEFQAAL [LESEFQAAL (MAGE3, position printed 301)]
IC50 [1]: 5.4 nM

Binder: EEGACQPCPI [EEGACQPCPI (Her2/neu position 619, 10-mer)]
IC50 [3]: 401 nM

Binder: GEGLACHQLCA [GEGLACHQLCA (Her2/neu position 506, 11-mer)]
IC50 [5]: 2.7 nM

Binder: SEYLQLVFGIEVV [MAGE2 155 SEYLQLVFGIEVV]
IC50 [6]: 7.6 nM

Binder: PEEGLEARGEA [PEEGLEARGEA (MAGE2, position 12)]
IC50 [7]: 950 nM

Second part, the binder after the results:

IC50 [2]: 85 nM
Binder: [Abu]VYSPALNR [p53.124.B1V2R9]

IC50 [4]: 9000 nM
Binder: SV[Abu]MGGMNK [p53.240.V2B3K9]

IC50 [4]: 720 nM
Binder: SS[Abu]MGGMNRK [p53.240.B3K10]
